Substrate: CC(C)C[C@H](NC(=O)[C@H](Cc1cnc[nH]1)NC(=O)CNC(=O)c1ccccc1)C(=O)O
Assay: purified protein, by the assay type
Format: biochemical
Settings: other: substrate hippuryl-His-Leu, human urinary ACE, pH 8.0
Excerpt: The role of ACE in the pathogenesis of hypertension has prompted a search for inhibitors of the enzyme that could act as antihypertensive drugs. See for example U.S. Pat. Nos. 3,891,616, 3,947,575, 4,052,511 and 4,053,651. […]. No. 4,046,889 to Ondetti et al., issued Sept. 6, 1977, and in scientific articles by Cushman, D. W. et al., Biochemistry 16, 5484 (1977), and by Ondetti, M. et al., Science 196, 441 (1977). […]. These factors include the source of enzyme, its purity, the substrate used and its concentration, and the composition of the assay buffer. All I50 data reported herein have been performed with the same assay system and same enzyme (human urinary ACE) and with an approximately 1/2 Km level of substrate and are therefore internally consistent. Discrepancies with data obtained by other workers may be observed. Indeed such discrepancies do exist in the literature, for unknown reasons. See, for example, the I50 values for BPP9a reported by Cushman, D. W., et al., Experientia 29, 1032 (1973) and by Dorer, F. E., et al., Biochim. Biophys. Acta 429, 220 (1976).
The inhibitory potency of N^α -[3-(L-α-glutamylthio)-2-D-methyl-propanoyl]-L-proline in vitro was measured in the following assay. […] The enzyme was assayed in 0.05M Hepes buffer, pH 8.0 containing 0.1M NaCl and 0.75M Na2 SO4. […]

B1: Human urinary ACE (Homo sapiens) (protein)
chain: LDPGLQPGNFSADEAGAQLFAQSYNSSAEQVLFQSVAASWAHDTNITAENARRQEEAALLSQEFAEAWGQKAKELYEPIWQNFTDPQLRRIIGAVRTLGSANLPLAKRQQYNALLSNMSRIYSTAKVCLPNKTATCWSLDPDLTNILASSRSYAMLLFAWEGWHNAAGIPLKPLYEDFTALSNEAYKQDGFTDTGAYWRSWYNSPTFEDDLEHLYQQLEPLYLNLHAFVRRALHRRYGDRYINLRGPIPAHLLGDMWAQSWENIYDMVVPFPDKPNLDVTSTMLQQGWNATHMFRVAEEFFTSLELSPMPPEFWEGSMLEKPADGREVVCHASAWDFYNRKDFRIKQCTRVTMDQLSTVHHEMGHIQYYLQYKDLPVSLRRGANPGFHEAIGDVLALSVSTPEHLHKIGLLDRVTNDTESDINYLLKMALEKIAFLPFGYLVDQWRWGVFSGRTPPSRYNFDWWYLRTKYQGICPPVTRNETHFDAGAKFHVPNVTPYIRYFVSFVLQFQFHEALCKEAGYEGPLHQCDIYRSTKAGAKLRKVLQAGSSRPWQEVLKDMVGLDALDAQPLLKYFQPVTQWLQEQNQQNGEVLGWPEYQWHPPLPDNYPEGIDLVTDEAEASKFVEEYDRTSQVVWNEYAEANWNYNTNITTETSKILLQKNMQIANHTLKYGTQARKFDVNQLQNTTIKRIIKKVQDLERAALPAQELEEYNKILLDMETTYSVATVCHPNGSCLQLEPDLTNVMATSRKYEDLLWAWEGWRDKAGRAILQFYPKYVELINQAARLNGYVDAGDSWRSMYETPSLEQDLERLFQELQPLYLNLHAYVRRALHRHYGAQHINLEGPIPAHLLGNMWAQTWSNIYDLVVPFPSAPSMDTTEAMLKQGWTPRRMFKEADDFFTSLGLLPVPPEFWNKSMLEKPTDGREVVCHASAWDFYNGKDFRIKQCTTVNLEDLVVAHHEMGHIQYFMQYKDLPVALREGANPGFHEAIGDVLALSVSTPKHLHSLNLLSSEGGSDEHDINFLMKMALDKIAFIPFSYLVDQWRWRVFDGSITKENYNQEWWSLRLKYQGLCPPVPRTQGDFDPGAKFHIPSSVPYIRYFVSFIIQFQFHEALCQAAGHTGPLHKCDIYQSKEAGQRLATAMKLGFSRPWPEAMQLITGQPNMSASAMLSYFKPLLDWLRTENELHGEKLGWPQYNWTPNSAR
notes: from tissue; host or cells: human urine
In the case of B1, the Km is reported as 200 µM.

— patent publication US4734420A, “Anti-hypertensive agents” (priority 1980, dated 1988)
